T1: human OX40 on cells (CHO-K1-hOX40, CHO-OX40, Jurkat-OX40 reporter cells) (human, UniProt P43489 29-277)
T1 sequence: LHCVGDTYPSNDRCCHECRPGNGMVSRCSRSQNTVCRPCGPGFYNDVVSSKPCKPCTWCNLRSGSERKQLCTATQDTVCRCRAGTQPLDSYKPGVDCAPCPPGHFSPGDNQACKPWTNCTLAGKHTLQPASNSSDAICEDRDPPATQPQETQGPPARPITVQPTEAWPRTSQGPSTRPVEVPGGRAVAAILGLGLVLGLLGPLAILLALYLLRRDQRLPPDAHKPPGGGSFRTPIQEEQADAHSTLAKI

T2: recombinant human OX40/His fusion protein (Novoprotein, CB17) (human, UniProt P43489 29-216)
T2 construct: Bought protein
T2 sequence: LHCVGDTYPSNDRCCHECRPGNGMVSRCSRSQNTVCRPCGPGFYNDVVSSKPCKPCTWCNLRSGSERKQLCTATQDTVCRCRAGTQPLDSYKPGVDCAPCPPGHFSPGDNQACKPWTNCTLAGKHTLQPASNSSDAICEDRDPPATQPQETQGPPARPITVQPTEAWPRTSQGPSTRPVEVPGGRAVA


Tests used:
[1] = target: T3, recombinant human PD-L1/His fusion protein (Novoprotein, Cat. No. C315) (human, UniProt Q9NZQ7 19-239); assay: BLI (Octet RED96), antibody on AHC sensor, PD-L1/His as analyte, test group 1
T3 construct: also called recombinant human PD-L1-his protein
Source text: (§1) Based on titer and purity, 10 of the 50 humanized antibodies were selected and further assayed in two groups for dissociation rate constant (koff) as shown in Table 7. Chimeric antibody EM0005-86c having VH/VL sequences identical to EM0005-mAb86 (as provided in Table 6) was used as a positive control in each group and served as a basis for normalization. Briefly, antibodies were characterized for affinities and binding kinetics by Octet® RED96 biolayer interferometry (Pall FortéBio LLC). Anti-hIgG Fc Capture (AHC) Biosensors (Pall) with antibody captured at a concentration of 100 nM for 120 seconds were dipped into running buffer (1× pH 7.2 PBS, 0.05% Tween 20, 0.1% BSA) for 60 seconds to check the baseline, then dipped into a single concentration of recombinant human PD-L1/His fusion protein (Novoprotein, Cat. No. C315) to measure binding for 200 seconds, followed by dipped into running buffer to measure dissociation for 600 seconds. The association and dissociation curves were fitted to a 1:1 Langmuir binding model using FortéBio Data Analysis software (Pall). The off-rate ratios shown in Table 7 were calculated by off-rate of a humanized antibody to that of EM0005-86c in the same test group. The off-rate ratio serves as a normalized index, so that the humanized antibodies can be compared to one another across test groups. The lower off-rate ratio indicates higher affinity of an antibody for human PD-L1. HuEM0005-86-21 was selected for further investigation based on the purity and off-rate data.

[2] = target: T3, recombinant human PD-L1/His fusion …; assay: BLI (Octet RED96), antibody on AHC sensor, PD-L1/His as analyte, test group 2
Source text: as §1, with “The lower off-rate ratio indicates higher affinity of an antibody for human PD-L1. HuEM0005-86-21 was selected for further investigation based on the purity and off-rate data.” left out

[3] = target: T3, recombinant human PD-L1/His fusion …; assay: BLI (Octet RED96), antibody on AHC sensor, PD-L1/His as analyte, test group 1 (the reference itself)
Source text: as §1, with “The lower off-rate ratio indicates higher affinity of an antibody for human PD-L1. HuEM0005-86-21 was selected for further investigation based on the purity and off-rate data.” left out

[4] = target: T3, recombinant human PD-L1/His fusion …; assay: BLI (Octet RED96), antibody on AHC sensor, PD-L1/His as analyte, test group 2 (the reference itself)
Source text: as §1, with “The lower off-rate ratio indicates higher affinity of an antibody for human PD-L1. HuEM0005-86-21 was selected for further investigation based on the purity and off-rate data.” left out

[5] = target: T1, human OX40 on cells (CHO-K1-hOX40, …); assay: cell-based or functional assay
[6] = target: T4, cyno OX40 on cells (CHO-K1-cOX40) (cyno); assay: FACS on CHO-K1-cOX40 cells
T4 construct: whole, on cells; also called Cyno OX40 on the cell surface
Experimental: (§2) The purified chimeric antibody was designated EM1007-44c. Binding activity to human or Cyno OX40 on the cell surface was assessed by FACS. Briefly, 5×10⁵ cells were seeded into each well of a 96-well plate (Corning, #3799). Cells were centrifuged at 400 g for 5 minutes and supernatants were discarded. For each well, 100 μl of 3× serial dilution of antibody starting from 100 nM was then added and mixed with the cells. After 60 minutes of 4° C. incubation, plates were washed to remove excess antibody. […] After another round of centrifugation and washing, cells were resuspended in FACS buffer for reading on a CytoFLEX Flow Cytometer (Beckman Coulter). Median Fluorescence Intensity (MFI) readouts were plotted against antibody concentration and analyzed with GraphPad Prism 8.0. The ability of OX40 to activate downstream signaling was detected in a Jurkat-OX40-NF-κB luciferase assay. Briefly, high binding plates (Corning, #3361) were coated with 3× serial dilution of EM1007-44c starting from 100 nM at 4° C. overnight, washed, then seeded with 1×10⁵ cells per well of OX40-NF-κB reporter and incubate at 37° C. for 6 hours. At the end of incubation, ONE-Glo™ luminescence assay kit (Promega, Cat. #E6130) reagents were prepared and added according to the manufacturer's instructions. Plates were read for luminescence signals on Varioskan™ LUX microplate reader (ThermoFisher Scientific).

[7] = target: T1, human OX40 on cells (CHO-K1-hOX40, …); assay: FACS on CHO-K1-hOX40 cells
Experimental: as §2

[8] = target: T2, recombinant human OX40/His fusion …; assay: BLI (Octet RED96), antibody on AHC sensor, OX40/His as analyte, test group 1
Experimental: (§3) All 17 antibodies in Table 4 were expressed by transient transfection of HEK293 cell, purified by Protein A chromatography, and assayed for and ranked by dissociation rate constant (koff). Briefly, antibodies binding affinities and kinetics were characterized by Octet® RED96 biolayer interferometry (Pall FortéBio LLC). Antibodies were captured by Anti-hIgG Fc Capture (AHC) Biosensors (Pall) at a concentration of 100 nM for 120 seconds. After that, sensors were dipped into running buffer (1× pH 7.2 PBS, 0.05% Tween 20, 0.1% BSA) for 60 seconds to check the baseline, then dipped into recombinant human OX40/His fusion protein (Novoprotein, CB17) at assigned concentration for 200 seconds to measure binding, followed by dipped into running buffer for 600 seconds for dissociation. The assay was conducted in four test groups (as listed in Table 5) all containing the EM1007-044c chimeric antibody as the basis for normalization. The association and dissociation curves were fitted to a 1:1 Langmuir binding model using ForteBio Data Analysis software (Pall) to obtain the off-rate constants as shown in Table 5 below. The off-rate of each antibody was compared to that of the EM1007-mAb044c chimeric antibody in the same test group obtained in parallel to produce the corresponding off-rate ratio, serving as a normalized index. The normalized index of an antibody indicates higher affinity for human OX40.

[9] = target: T2, recombinant human OX40/His fusion …; assay: BLI (Octet RED96), antibody on AHC sensor, OX40/His as analyte, test group 2
Experimental: as §3

[10] = target: T2, recombinant human OX40/His fusion …; assay: BLI (Octet RED96), antibody on AHC sensor, OX40/His as analyte, test group 3
Experimental: as §3

[11] = target: T2, recombinant human OX40/His fusion …; assay: BLI (Octet RED96), antibody on AHC sensor, OX40/His as analyte, test group 4
Experimental: as §3

[12] = target: T2, recombinant human OX40/His fusion …; assay: BLI (Octet RED96), antibody on AHC sensor, OX40/His as analyte, test group 1 (the reference itself)
Experimental: as §3, with “The normalized index of an antibody indicates higher affinity for human OX40.” left out

[13] = target: T2, recombinant human OX40/His fusion …; assay: BLI (Octet RED96), antibody on AHC sensor, OX40/His as analyte, test group 2 (the reference itself)
Experimental: as §3, with “The normalized index of an antibody indicates higher affinity for human OX40.” left out

[14] = target: T2, recombinant human OX40/His fusion …; assay: BLI (Octet RED96), antibody on AHC sensor, OX40/His as analyte, test group 3 (the reference itself)
Experimental: as §3, with “The normalized index of an antibody indicates higher affinity for human OX40.” left out

[15] = target: T2, recombinant human OX40/His fusion …; assay: BLI (Octet RED96), antibody on AHC sensor, OX40/His as analyte, test group 4 (the reference itself)
Experimental: as §3, with “The normalized index of an antibody indicates higher affinity for human OX40.” left out

T3 sequence (Q9NZQ7 19-239 limits assumed): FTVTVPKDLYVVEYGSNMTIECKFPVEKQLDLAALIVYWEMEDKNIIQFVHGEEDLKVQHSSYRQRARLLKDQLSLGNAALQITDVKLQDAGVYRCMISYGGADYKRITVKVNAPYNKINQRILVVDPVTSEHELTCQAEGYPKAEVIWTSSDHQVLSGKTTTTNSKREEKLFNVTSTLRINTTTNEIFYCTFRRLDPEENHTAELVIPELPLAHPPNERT

koff [1] [s⁻¹] | koff [2] [s⁻¹] | Off-Rate Ratio to EM0005-86c [3] [%] | Off-Rate Ratio to EM0005-86c [4] [%] | OX40-Jurkat-NF-κB-Reporter, EC50 [5] [nM] | OX40-Jurkat-NF-κB-Reporter, Maximal fold change [5] [fold] | EC50 [6] [nM] | EC50 [7] [nM] | koff [8] [s⁻¹] | koff [9] [s⁻¹] | koff [10] [s⁻¹] | koff [11] [s⁻¹] | Normalized Index (off-rate ratio to EM1007-mAb044c) [12] [%] | Normalized Index (off-rate ratio to EM1007-mAb044c) [13] [%] | Normalized Index (off-rate ratio to EM1007-mAb044c) [14] [%] | Normalized Index (off-rate ratio to EM1007-mAb044c) [15] [%] | Binder
0.000272 | 0.000146 | 100 | 100 | – | – | – | – | – | – | – | – | – | – | – | – | EM0005-86c (antibody, V domains shown, Chimeric anti-PD-L1; captured on anti-human IgG Fc sensors) VH: QVQLQQSGAELVRPGSSVKMSCKTSGYTFTTYGINWVKQRPGQGLEWIGYIYIGNGYTEYNEKFKGKATLTSDPSSRTAYMQLSSLTSEDSAIYFCARDLMVIAPKTMDYWGQGTSVTVSS VL: DIQMNQSHKFMSTSVGDRVSITCKASQDVGTAVAWYQQKPGQSPKLLIYWASTRHTGVPDRFTGGGSGTDFTLTISNVQSEDLADYFCQQYSSYPYTFGGGTKLEMK
– | – | – | – | 0.43 | 1.52 | 2.11 | 2.6 | 0.000336 | 0.000318 | 0.000305 | 0.000279 | 100 | 100 | 100 | 100 | EM1007-44c (antibody, human IgG1, V domains shown, also called EM1007-mAb044c; EM1007-044c) VH: QVQLQQSGPELVKPGASVTISCKASGHAFSSSWMNWVKQRPGKGLEWIGRIYPGDEITNYNGKFKDKATLTADKSSSTAYMQLSSLTFEDSAVYFCARDLLMPYWGQGTLVTVSA VL: DIVMTQTAFSNPVTLGTSASISCRSSKSLLYSNGITYLYWYLQKPGQSPHLLIYQMSNLAPGVPDRFSSSGSGTDFTLRISRVEAEDVGIYYCAQNLELPFTFGSGTKLEIK

Reference: patent US20250282881A1 (SHANGHAI EPIMAB BIOTHERAPEUTICS, published 2025)
